Numbered stars: 1 amine (or outer) side, 2 acyl side, 3 side chain; on linkers, the order of the positions; unused ones are H or OH. Bridge positions count the residues as written; N and C are the ends. * marks the point of attachment. C20 diacid = O=C(O)CCCCCCCCCCCCCCCCCCC(=O)*; γGlu = O=C(O)[C@H](CCC(=O)[*:2])N[*:1]
T1: human amylin receptor (amylin 3(a) receptor: human calcitonin receptor plus RAMP-3) (human, UniProt P30988 25-474; O60896 24-148, limits assumed)
T1 construct: whole, on cells; Whole cells in the luciferase assay (Assay II a); also called hAmylin-R; hAmylinR
T1 sequence (looked up) 1: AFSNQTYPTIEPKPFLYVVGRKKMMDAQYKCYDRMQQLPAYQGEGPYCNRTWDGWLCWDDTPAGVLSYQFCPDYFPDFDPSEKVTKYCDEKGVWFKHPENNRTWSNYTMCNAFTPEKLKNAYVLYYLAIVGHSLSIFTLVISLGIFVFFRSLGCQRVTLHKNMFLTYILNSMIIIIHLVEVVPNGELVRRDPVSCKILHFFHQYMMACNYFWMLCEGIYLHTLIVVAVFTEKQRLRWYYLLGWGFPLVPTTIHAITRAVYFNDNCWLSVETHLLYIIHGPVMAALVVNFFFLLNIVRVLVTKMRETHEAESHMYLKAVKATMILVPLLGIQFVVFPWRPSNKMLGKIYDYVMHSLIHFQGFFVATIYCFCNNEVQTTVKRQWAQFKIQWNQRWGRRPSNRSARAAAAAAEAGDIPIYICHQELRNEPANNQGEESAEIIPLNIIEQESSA
T1 sequence (looked up) 2: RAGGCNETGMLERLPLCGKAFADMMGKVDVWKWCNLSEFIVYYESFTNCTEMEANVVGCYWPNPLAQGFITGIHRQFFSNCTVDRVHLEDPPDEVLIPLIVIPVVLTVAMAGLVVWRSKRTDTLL

T2: human calcitonin receptor (human, UniProt P30988 25-474)
T2 sequence (looked up): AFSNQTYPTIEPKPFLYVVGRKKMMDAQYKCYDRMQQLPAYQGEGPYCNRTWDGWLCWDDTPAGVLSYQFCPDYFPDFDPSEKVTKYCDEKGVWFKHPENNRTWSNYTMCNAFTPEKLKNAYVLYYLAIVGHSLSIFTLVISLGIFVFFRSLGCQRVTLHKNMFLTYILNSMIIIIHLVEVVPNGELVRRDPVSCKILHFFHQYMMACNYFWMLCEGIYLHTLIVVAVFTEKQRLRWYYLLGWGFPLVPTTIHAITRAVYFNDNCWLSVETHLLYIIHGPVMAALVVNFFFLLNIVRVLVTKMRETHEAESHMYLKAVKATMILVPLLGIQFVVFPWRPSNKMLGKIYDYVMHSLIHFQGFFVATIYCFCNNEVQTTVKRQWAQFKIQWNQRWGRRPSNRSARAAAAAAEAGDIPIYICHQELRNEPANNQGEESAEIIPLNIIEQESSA


Legend:
[1] = biological target: T1, human amylin receptor (amylin 3(a) …); assay: SPA competition binding, displacement of 125I-rat amylin from membranes of BHK cells with human calcitonin receptor + RAMP-3 (Assay V)
Procedure, shortened: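 SPA beads + BHK amylin 3(a)/CRE-luc membranes, 35 ng/μL final; buffer 50 mM Hepes pH 7.4, 1 mM CaCl2, 5 mM MgCl₂, 0.1% OA, 0.02% Tween20. 120 min, 25° C, shaken; scintillation count. IC₅₀ by one-site binding competition fit, taken as receptor affinity.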

[2] = biological target: T2, human calcitonin receptor; assay: cell-based or functional assay
[3] = biological target: T1, human amylin receptor (amylin 3(a) …); assay: cell-based or functional assay

| Binder | IC50 [1] | hCTR funct. EC50 [2] | Ratio hCT/hAmylin funct. [3] | hAmylin-R funct. EC50 [3] |
| --- | --- | --- | --- | --- |
| {C20 diacid-γGlu}-KCNTATCATQRLANFLRHSSPNFGAIPSSTNVGPETY-NH2 (disulfide 2-7; SMILES CC[C@H](C)[C@H](NC(=O)[C@H](C)NC(=O)CNC(=O)[C@H](Cc1ccccc1)NC(=O)[C@H](CC(N)=O)NC(=O)[C@@H]1CCCN1C(=O)[C@H](CO)NC(=O)[C@H](CO)NC(=O)[C@H](Cc1c[nH]cn1)NC(=O)[C@H](CCCNC(=N)N)NC(=O)[C@H](CC(C)C)NC(=O)[C@H](Cc1ccccc1)NC(=O)[C@H](CC(N)=O)NC(=O)[C@H](C)NC(=O)[C@H](CC(C)C)NC(=O)[C@H](CCCNC(=N)N)NC(=O)[C@H](CCC(N)=O)NC(=O)[C@@H](NC(=O)[C@H](C)NC(=O)[C@@H]1CSSC[C@H](NC(=O)[C@H](CCCCN)NC(=O)CC[C@H](NC(=O)CCCCCCCCCCCCCCCCCCC(=O)O)C(=O)O)C(=O)N[C@@H](CC(N)=O)C(=O)N[C@@H]([C@@H](C)O)C(=O)N[C@@H](C)C(=O)N[C@@H]([C@@H](C)O)C(=O)N1)[C@@H](C)O)C(=O)N1CCC[C@H]1C(=O)N[C@@H](CO)C(=O)N[C@@H](CO)C(=O)N[C@H](C(=O)N[C@@H](CC(N)=O)C(=O)N[C@H](C(=O)NCC(=O)N1CCC[C@H]1C(=O)N[C@@H](CCC(=O)O)C(=O)N[C@H](C(=O)N[C@@H](Cc1ccc(O)cc1)C(N)=O)[C@@H](C)O)C(C)C)[C@@H](C)O, Synthetic acylated analogue of human amylin; also called compound 29) | 0.577 nM | 0.857 nM | 8.7 ratio | 0.099 nM |
| {C20 diacid-γGlu}-KCNTATCATQRLAEFLRHSSPNFGAIPSSTNVGHNTY-NH2 (disulfide 2-7; SMILES CC[C@H](C)[C@H](NC(=O)[C@H](C)NC(=O)CNC(=O)[C@H](Cc1ccccc1)NC(=O)[C@H](CC(N)=O)NC(=O)[C@@H]1CCCN1C(=O)[C@H](CO)NC(=O)[C@H](CO)NC(=O)[C@H](Cc1c[nH]cn1)NC(=O)[C@H](CCCNC(=N)N)NC(=O)[C@H](CC(C)C)NC(=O)[C@H](Cc1ccccc1)NC(=O)[C@H](CCC(=O)O)NC(=O)[C@H](C)NC(=O)[C@H](CC(C)C)NC(=O)[C@H](CCCNC(=N)N)NC(=O)[C@H](CCC(N)=O)NC(=O)[C@@H](NC(=O)[C@H](C)NC(=O)[C@@H]1CSSC[C@H](NC(=O)[C@H](CCCCN)NC(=O)CC[C@H](NC(=O)CCCCCCCCCCCCCCCCCCC(=O)O)C(=O)O)C(=O)N[C@@H](CC(N)=O)C(=O)N[C@@H]([C@@H](C)O)C(=O)N[C@@H](C)C(=O)N[C@@H]([C@@H](C)O)C(=O)N1)[C@@H](C)O)C(=O)N1CCC[C@H]1C(=O)N[C@@H](CO)C(=O)N[C@@H](CO)C(=O)N[C@H](C(=O)N[C@@H](CC(N)=O)C(=O)N[C@H](C(=O)NCC(=O)N[C@@H](Cc1c[nH]cn1)C(=O)N[C@@H](CC(N)=O)C(=O)N[C@H](C(=O)N[C@@H](Cc1ccc(O)cc1)C(N)=O)[C@@H](C)O)C(C)C)[C@@H](C)O, Synthetic acylated analogue of human amylin; also called compound 17) | 0.878 nM | 2.35 nM | 8.8 ratio | 0.268 nM |
| {C20 diacid-γGlu}-KCNTATCATQRLAEFLRHSSPNFGAIPSSTNVGPNTY-NH2 (disulfide 2-7; SMILES CC[C@H](C)[C@H](NC(=O)[C@H](C)NC(=O)CNC(=O)[C@H](Cc1ccccc1)NC(=O)[C@H](CC(N)=O)NC(=O)[C@@H]1CCCN1C(=O)[C@H](CO)NC(=O)[C@H](CO)NC(=O)[C@H](Cc1c[nH]cn1)NC(=O)[C@H](CCCNC(=N)N)NC(=O)[C@H](CC(C)C)NC(=O)[C@H](Cc1ccccc1)NC(=O)[C@H](CCC(=O)O)NC(=O)[C@H](C)NC(=O)[C@H](CC(C)C)NC(=O)[C@H](CCCNC(=N)N)NC(=O)[C@H](CCC(N)=O)NC(=O)[C@@H](NC(=O)[C@H](C)NC(=O)[C@@H]1CSSC[C@H](NC(=O)[C@H](CCCCN)NC(=O)CC[C@H](NC(=O)CCCCCCCCCCCCCCCCCCC(=O)O)C(=O)O)C(=O)N[C@@H](CC(N)=O)C(=O)N[C@@H]([C@@H](C)O)C(=O)N[C@@H](C)C(=O)N[C@@H]([C@@H](C)O)C(=O)N1)[C@@H](C)O)C(=O)N1CCC[C@H]1C(=O)N[C@@H](CO)C(=O)N[C@@H](CO)C(=O)N[C@H](C(=O)N[C@@H](CC(N)=O)C(=O)N[C@H](C(=O)NCC(=O)N1CCC[C@H]1C(=O)N[C@@H](CC(N)=O)C(=O)N[C@H](C(=O)N[C@@H](Cc1ccc(O)cc1)C(N)=O)[C@@H](C)O)C(C)C)[C@@H](C)O, Synthetic acylated analogue of human amylin; also called compound 32) | 0.1 nM | 0.327 nM | 6.6 ratio | 0.05 nM |
| {C20 diacid-γGlu-γGlu}-KCNTATCATQRLAEFLRHSSPNFGAIPSSTNVGSNTY-NH2 (disulfide 2-7; SMILES CC[C@H](C)[C@H](NC(=O)[C@H](C)NC(=O)CNC(=O)[C@H](Cc1ccccc1)NC(=O)[C@H](CC(N)=O)NC(=O)[C@@H]1CCCN1C(=O)[C@H](CO)NC(=O)[C@H](CO)NC(=O)[C@H](Cc1c[nH]cn1)NC(=O)[C@H](CCCNC(=N)N)NC(=O)[C@H](CC(C)C)NC(=O)[C@H](Cc1ccccc1)NC(=O)[C@H](CCC(=O)O)NC(=O)[C@H](C)NC(=O)[C@H](CC(C)C)NC(=O)[C@H](CCCNC(=N)N)NC(=O)[C@H](CCC(N)=O)NC(=O)[C@@H](NC(=O)[C@H](C)NC(=O)[C@@H]1CSSC[C@H](NC(=O)[C@H](CCCCN)NC(=O)CC[C@H](NC(=O)CC[C@H](NC(=O)CCCCCCCCCCCCCCCCCCC(=O)O)C(=O)O)C(=O)O)C(=O)N[C@@H](CC(N)=O)C(=O)N[C@@H]([C@@H](C)O)C(=O)N[C@@H](C)C(=O)N[C@@H]([C@@H](C)O)C(=O)N1)[C@@H](C)O)C(=O)N1CCC[C@H]1C(=O)N[C@@H](CO)C(=O)N[C@@H](CO)C(=O)N[C@H](C(=O)N[C@@H](CC(N)=O)C(=O)N[C@H](C(=O)NCC(=O)N[C@@H](CO)C(=O)N[C@@H](CC(N)=O)C(=O)N[C@H](C(=O)N[C@@H](Cc1ccc(O)cc1)C(N)=O)[C@@H](C)O)C(C)C)[C@@H](C)O, Synthetic acylated analogue of human amylin; also called compound 15) | 0.597 nM | 3.43 nM | 8.9 ratio | 0.386 nM |
